The record followed here is article PMC8196545 (Cell reports, 2021).

For this assay, the target named is HIV-1 NL4-3 Env on infected cells (HIV-1 group M subtype B, NL4-3 (pNL4-3 …, strain)).

Positions count from the first letter of the chain named.

B1: c31993 (antibody, V domains shown)
VH: EVQLVQSGAEVKKPGESLKISCKCSGYTFSDHWIGWVRQRPEKGLEWMGIIFPDDSETRYSPSFEGQVTFSVDTASSTAYLLWNSLKPSDTATYYCARQESDEVRGARYDIWGQGTVVAVSS
VL: QSVLTQPPSVSGTPGQRVTISCSGSTSNVENNYVFWYQQLPGKAPELLIDGSNQRPSGVPDRFSGSKSGISASLAISGLRSEDEAYYYCAAWDESFVYLFGGGTKLTVL
Regarding B1, the binding result is listed as “binds”.

B2: c10895 (antibody, V domains shown)
VH: QEQGIESVRAAVESGASLIISCPTSGFDFARYTMHWVRQAPGKGLEWVAVTSSQGEKKYYSEAVKGRFVITRNNFKRTLYLEMSSLKPEDAGVYYCARSQGYCGTYACYGYYYYMDVWVKGPTVIVSS
VL: QSVLTQPPSVSAAPGEKVAISCSGNTTNIEKNYVAWYQHVPETAPKLLIFENHKRPFGIPDRFSGSKSATSATLGISDLQTADEADYYCQTWDTKLHIWVFGGGTKLTVL
As to B2, the binding result is “binds”.

B3: c11475 (antibody, V domains shown)
VH: EARLVESGGGRVQPGGSLRLSCEASGFRFSSYTFNWVRQSPGKGLEWLAKISASPFGRSQVNYAHSVEGRFIISRDNDGNSLRLQMNDLRGGDSGVYYCARAPWQERNLDYNYAMDVWGQGTTVIVSS
VL: ELVLTQSPGTLSLSPGERATVSCRASQSLRRDSLAWYQQKPGHSPRLLIFAASNRVPGIPYRFSGTGSGTQFTLTIEKMEPEDFAVYYCQSYGSSPLYTFGQGTKLDIN
For the molecule B3, the binding result is given as “binds”.

B4: c10840 (antibody, V domains shown)
V domain 1: EVRLDQSGAEMRKPGTSVRLSCTVSGHTTSDFFIHWVKQAPQRGPQWMGLINVEDENVIYAEVFQGRISIVADTSKTTVFLDLSHLTFEDTALYFCTTHTLEKETGDYVAAFDSWGQGTFLSVSS
V domain 2: QSVLTQPPSVSAVPGQKVIISCSGRTSNIGTNFVSWYQQFPGAAPKLLIYDTFHRPSGISDRFSASKSDTSATLAITALQPGDEAEYYCGAWDSGLNPAVFVFGSGTRVFVL
With B4, the binding result was “binds”.

B5: c31461 (antibody, V domains shown)
VH: QLQLQESGPGLVKPSETLSLTCSASGVSIGGGSSFLGWIRQPPGMGLEWIVTHYSAAKIYYNPSLQSRVITSLDTSKTQFSLKLTSMTATDTAIYYCARGNWQLQAFDSWGQGILVTVSS
VL: DIQMTQSPSTLSASVGDRVTITCRASQDIRSWLAWYQQKPGEAPKLLIYTASRLHSGVPSRFSGSGSGTEFTLTISSLQPDDFATYYCQQHNSYSGTFGQGTKVEIK
With B5, the binding result is on record as “binds”.

B6: c24356 (antibody, V domains shown)
VH: QVQVVQSGAEVKQPGASVSVSCKVLGYTLSELSMHWVRQSPAKGLEWMAGFDPDANKEIYAQEFQGRVTLTHHFDTDTYFLELTSLRSDDTAVYYCATGERLAGNFLDWLHNFDYWGQGTLVTVSA
VL: EIVLTQSPATLSLSPGERATLSCRASQSIGNYLAWYQQRPGQAPRLLIHSTSNRATGIPVRFTGSGSGTDFTLTISSLEAEDFAVYYCQHRVNWPPGYTFGQGTKLDIK
On to B6, for which the binding result is “binds”.

B7: c29260 (antibody, V domains shown)
VH: QVRLQESGPGLVRPSETLSLTCLVSGDSITSNYWSWIRQPPGKTLEWIGFMYNSGDANYNPSLQSRVSISADTANNQFALRLTSVTAADTAVYYCARHPSRGSNYDSVTGDTYYYYYGIDVWGPGKAVAVSS
VL: DIQMTQSTPSLSASLGDKITISCQASRDIDTSLNWYQQKPGKSPKLLVVAASTLETGVPSRFSASGSGTHFTLTINDLQRDDVATYFCQQYAALPLTFGGGTRVDLR
As for B7, the binding result is “binds”.

B8: c5272 (antibody, V domains shown)
VH: EVRLQESGPELVKPSGTLSLTCTIYGESIFPYFYSWIRQTAGGGLQWIGRLYSSTGSSKSNPSIHLRVALSVDRDRNQVGLRMTSMSLADTGVYYCVRDVMRGYDSFDGSSGIYGGVDIWGRGTTVTVSS
VL: QFLLTQPHSVSESPGKTITISCTRSSGTFASKSVLWFSQRPGSRPTNVIFETNRRAAGVPDRFSGSVDSSSSSATLTISGLRTEDEGDYYCQSYDGGNHVVFGGGTKVTVL
As for B8, the binding result was “binds”.

B9: c5331 (antibody, V domains shown)
VH: HVHLQESGPGLVKPSETLSVTCQVSGSPLSRYFWSWIRQPAGGGLEWIGRHYPSSGSNTASAALHTRITMSMDFRNNRLSLTLRSVTAADTAVYYCTRDVMRDFNDVNGSGGTFRGVEFWGRGTTVTVSS
VL: SFILTQPHAVSESPGKTVTISCTRSSGSIDTAYVHWYQQRPGRPPTTLIYDANQRPSGVPDRFSASVDSSSSSASLTISGLEAEDEAIYYCQSSDSGHRVVFGGGTELTVL
For the molecule B9, the binding result was “binds”.

B10: c21079 (antibody, V domains shown)
VH: EVQLVQSGGGEARPGDSLRISCAVSGFQFNQYAMSWVRQRPGKGLEWVSSADWTGNSVHYAGSLGDRFSVSRALYGHSLELQMNSLRPEDTAVYYCARQDFYASESRAFSEIHGNFFDLWGQGTRVTVSP
VL: QSALTQPPSASGSPGQSVIISCTGASSDISGHEYVSWYQQHAAKVPKLIIYEVTKRPSGVPDRFIGSRSGNTASLTISGLQADDEADYYCASYRHNDRSYVFGTGTTVAVL
As for B10, the binding result is on record as “binds”.

B11: c5373 (antibody, V domains shown)
VH: QVRLQESAPRVVKPSESLSLTCTVSGGSIFPFFYSWIRQAPGGGLQWIGRLYSNTGSSKSNPSLHLRVALSVDRSRNQVGLKMTSMTAADTGVYYCVRDIMREFDDFNGAGGVYGGVDIWGRGTAVTVSS
VL: QFVLTQPPSVSESPGKTISISCTRSSGTFARNSVHWYLQRPGSVPKTVIYDGNRRPSGIPGRFSASIDVSSGSASLTISGLTTEDEAEYYCQSFDGGNHVVFGGGTKVTVL
Consider B11, for which the binding result is on record as “binds”.

B12: c5337 (antibody, V domains shown)
VH: B11 VH with V11L, S17T, E103D
VL: B11 VL with T83P, F94Y
As to B12, the binding result was “binds”.

B13: c27003 (antibody, V domains shown)
VH: QFQLVQSGAEVRSPGSSVTVSCKASGSTFHTYVLSWVRQAPGQGLEWMGGIIPIFATPKYAQKFQGRVTFTADEGTSTAYMDLRSLRPEDTAVYYCARSATGGTALVDYGDYEGDTFYHNHMDVWGAGTTVTVSS
VL: QSVLTQPPSASATPGQRVTISCSGRTSNVGSYAVSWYQQLPGTAPKLVIYSDDRRPSGVPDRFSGSKSGTSASLAISGLQSEDEADFYCAAWDDSLKTPVFGGGTKLTVL
As to B13, the binding result was “binds”.

B14: c26986 (antibody, V domains shown)
VH: QVHLVQSGAEVKKPGSSVKVSCKASGGSFNTNFITWVRQAPGQGLEWMGRIMPMFGTRNLAQRFQGRVTLSADTSSNSVYMELSSLTFGDTAVYFCAREAPAGGLDIWGQGTLVTVSS
VL: QIVLTQSPGTLSLSPGERATLSCRASQSLSSNYLAWYQQKPGQAPRLLIYGASSRATGIPDRFSGSGSGTDFTLTISRLEPEDFAVYYCQQYSTLFSFGPGTRVDIK
As for B14, the binding result is recorded as “binds”.

B15: c5266 (antibody, V domains shown)
VH: QVRLQESGPGLVKPSETLSLTCSVSGASVTAYSWSWVRLSAERGLEWIGRILPTIGSNRSNPSLHMRVGMSADTSKNLLSLRLTSVTAADTATYFCARDLVRDYDSWGGDYSTFHGIDVWGQGITVTVSL
VL: NSLLTQPPSVSESPGKTVNISCTRTSGGITWDFVQWYQQRPGRAPAIVIYANDRRPSGVPDRFAGSIDSSSNSAALIISGLITEDEADYYCQSFHPRGHVVFGGGTKLTVL
With B15, the binding result was “binds”.

B16: c5229 (antibody, V domains shown)
VH: QMQLQESGPRLVKPSETLTVTCSVSGGSMSHFHWSWIRQSAGKGLEWIGSVYGNSGSVRSNPSLHTRVAFSLGRGQISLNLKWATAADTAVYYCARELARDFDYNFGHGGSSFGIEVWGRGTLVTVSS
VL: NFILTQPHSVSGSPGKTVIISCTRSSGNIGDNSVQWYQQRPGTPPRTVISEKNKRPSGVPDRFSASIDTSSNSASLTISGLTTEDEADYYCQSCDSGNRLIFGGGTTLTVL
On to B16, for which the binding result is reported as “binds”.

B17: c24118 (antibody, V domains shown)
VH: EVRLVESGGSLVQPGGSLRLSCSASGFSFSKSAMSWVRQAPGKELEWVAAISGSGNSHHISDAVRGRFSISRDNLGDSVFLQMYNLRVDDTAKYFCAKSEGGRSGWYYWATEYFQHWGQGAVVTVAS
VL: SSELTQPPSVSVSPGQTARISCSGHALPQRYATWYRQKPGQAPILIIFGNNERPSGIPARFFVSASGKTAILTITGVQAEDEGDYICQSSDGSHTSLVFGGGTKLTVL
Turning to B17, the binding result is reported as “binds”.

B18: c24103 (antibody, V domains shown)
VH: B17 VH with V5A, E6Q, S10G, E46Q, H58Q, F68L, G76D, Q82H, Y84N, D89E
VL: B17 VL with I47V, F62S, I71M
For B18, the binding result is reported as “binds”.

B19: c22681 (antibody, V domains shown)
VH: QIRLVESGGALVKPGGSLRLSCTASGFPFGHYYLSWVRQGPGRGLEWVAHISARSTTIVYADSVRGRFTISRDNDKRSLYLEMNDLRVDDTAMYYCARDSFKWTWEYFDAWGQGTRVSVSS
VL: QSVLTQPPSVSGAPGQTVAISCSGSTSNIGHNPVSWYRNVPGTAPRIIIFSDSQRPSGIPGRFSGSKSGTSASLVITDLQLEDEGDYYCAAWGGSLRGALFGGGTKVTVL
As to B19, the binding result was “binds”.

B20: c27236 (antibody, V domains shown)
VH: QVQLVQSGAEVKTPGSSVKVACKTSGGPFSSYAISWIRQAPGEGLEWMGGVTPLFGTARYTQKFQGRLTITTDESTSTTYMSLSGLKSEDTAVYYCASLAYIGSGPKWGQGALVTVSS
VL: DIQMTQSPSAMSASVGERVTITCRASQGISSDLAWFQQKPGKVPERLIYAASNLQSGVPSRFSGSGSGTQFTLTISGLQAEDSATYYCLQHDSYPWTFGQGTKVEIK
Regarding B20, the binding result is on record as “binds”.
